Molecular target: RAD51 (UniProt Q06609 1-339)
Assay: EMSA; 2 mM ATP, 5 mM CaCl2; EMSA, 10 nM DNA. RAD51: 20 mM Tris-HCl pH 8.0, 30 mM NaCl, 1 mM DTT, 2 mM ATP, 5 mM CaCl2, 0.2% Tween 20, 37 C 15 min. BG4: 20 mM Tris-HCl pH 8.0, 30 mM KCl, 1
Settings: protein: commercial; chain copies: 10; label: none (SYBR Gold stain); single strand

RAD51, sequence (Q06609 whole entry): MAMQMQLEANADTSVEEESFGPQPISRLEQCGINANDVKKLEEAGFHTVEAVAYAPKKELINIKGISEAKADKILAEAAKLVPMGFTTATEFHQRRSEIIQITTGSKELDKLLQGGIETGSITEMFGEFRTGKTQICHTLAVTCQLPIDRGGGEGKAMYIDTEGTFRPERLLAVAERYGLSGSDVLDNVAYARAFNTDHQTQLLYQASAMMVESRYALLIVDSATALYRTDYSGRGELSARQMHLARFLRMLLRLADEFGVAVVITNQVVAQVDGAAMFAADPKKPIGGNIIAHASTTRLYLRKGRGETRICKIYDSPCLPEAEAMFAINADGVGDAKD

B1: ss-DNA (ssDNA)
DNA: ATGGTGTGTGTAGGTTAATGTGAGGAGGAGAGGTGAAGAAGGAGGAGAGAAGAAGGAGGC
Q: Does B1 bind?
A: Result: binds
